# Tests used:
# [1] = target: RyR2-S2814D (CaMKII phosphomimetic), knock-in mouse (mouse (endogenous in ventricular myocytes)) (UniProt E9Q401); test: FRET or BRET
# [2] = target: RyR2-S2814A (non-phosphorylatable), knock-in mouse (mouse (endogenous in ventricular myocytes)) (UniProt E9Q401); test: FRET or BRET
Kd [2] [nM],Kd [1] [nM],Substance,fold faster binding (wash-in) vs. S2814A myocytes [1] [fold]
–,–,fluorescent DPc10 peptide (F-DPc10; RyR2 residues 2460-2495) (from UniProt P30957 2460-2495),2
20,72,fluorescent calmodulin (F-CaM) (from UniProt P0DP23 1-149) (natural protein),–

# — publication PMC5026590
